In PMC8000408, “Inhibition of NUPR1–Karyopherin β1 Binding Increases Anticancer Drug Sensitivity” (International Journal of Molecular Sciences, 2021) one finds Kd, koff and kon data, which are given here for 1 molecule.

Assay [1] concerns the target T1, Cy5-labeled karyopherin β1 (KPNB1) (UniProt Q14974 1-876, Cy5 label (site not stated)).
T1 construct: Karyopherin β1 (KPNB1, importin β1); also called importin β1; Cy5-KPNB1
Briefly: single-molecule pull-down (TIRF microscopy); GST-NUPR1 immobilised; observed rate constants at various concentrations of karyopherin β1, fitted with a Michaelis-Menten equation. The following applies: both partners purified.

Assay [2] addresses T1, Cy5-labeled karyopherin β1 (KPNB1). Briefly: single-molecule pull-down (TIRF microscopy); GST-NUPR1 (100 nM) immobilised on PEG-coated quartz via neutravidin and biotin-conjugated GST-tag antibody; 5 nM Cy5-labeled KPNB1 in imaging buffer (4 mM Trolox, 0.2% glucose, 50 mM NaCl, pyranose oxidase, catalase); spots counted up to 1 h, then unbound KPNB1 washed out for dissociation; exponential fits. The settings on record: both partners purified.

T1 sequence (Q14974 whole entry): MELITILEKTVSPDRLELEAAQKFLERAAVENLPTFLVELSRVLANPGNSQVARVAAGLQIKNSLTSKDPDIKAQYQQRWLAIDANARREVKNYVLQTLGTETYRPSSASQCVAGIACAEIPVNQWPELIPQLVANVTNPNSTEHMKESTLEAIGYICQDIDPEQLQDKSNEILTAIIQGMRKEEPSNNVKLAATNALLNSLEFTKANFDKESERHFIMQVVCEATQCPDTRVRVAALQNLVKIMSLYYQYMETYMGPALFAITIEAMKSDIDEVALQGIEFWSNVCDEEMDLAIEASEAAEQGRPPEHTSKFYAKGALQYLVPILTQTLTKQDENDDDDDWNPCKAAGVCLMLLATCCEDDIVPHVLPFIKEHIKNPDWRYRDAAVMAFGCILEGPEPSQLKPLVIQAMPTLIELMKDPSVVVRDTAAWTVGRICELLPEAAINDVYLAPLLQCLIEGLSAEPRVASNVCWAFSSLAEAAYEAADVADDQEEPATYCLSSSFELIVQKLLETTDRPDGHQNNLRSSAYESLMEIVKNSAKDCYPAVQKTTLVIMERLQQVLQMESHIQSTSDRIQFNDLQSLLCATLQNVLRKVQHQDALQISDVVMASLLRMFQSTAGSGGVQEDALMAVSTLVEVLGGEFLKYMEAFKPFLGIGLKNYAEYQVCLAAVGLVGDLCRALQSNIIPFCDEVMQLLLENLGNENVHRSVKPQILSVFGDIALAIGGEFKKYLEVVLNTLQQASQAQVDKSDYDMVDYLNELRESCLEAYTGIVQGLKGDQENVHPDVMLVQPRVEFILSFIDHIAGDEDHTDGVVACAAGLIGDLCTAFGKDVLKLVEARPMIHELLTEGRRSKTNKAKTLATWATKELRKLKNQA

B1: GST-NUPR1 (nuclear protein-1) recombinant protein (natural protein, UniProt O60356 1-82, looked up)
chain: MATFPPATSAPQQPPGPEDEDSSLDESDLYSLAHSYLGGGGRKGRTKREAAANTNRPSPGGHERKLVTKLQNSERKKRGARR
notes: Nuclear protein-1 (NUPR1, p8/Com-1); Held on the PEG-coated quartz surface through neutravidin and a biotin-conjugated GST-tag antibody; No catalogue number is printed; also called p8; Com-1; source: bought: NOVUS Biologicals (recombinant protein)
A word on the Kd: it is the concentration at which binding is half-saturated. Read a high Kd as weaker binding. As usually defined, the koff is a measure of how fast the partners let go of each other. A word on the kon: it is the second-order rate constant of association. As to B1, in assay [1], the Kd is 0.75 nM. In assay [2], this molecule yielded a Kd of around 0.65 nM, a koff of 0.0003 s⁻¹ and a kon of 467000 M⁻¹ s⁻¹.
